# Measured values from paper PMC10621011 (ACS Omega, 2023).
# Where “and” joins values, the source holds several entries; their conditions need not be identical. Identical values can stand only once.
# How the values were obtained:
# [1] = molecular target: PD-L1 on H1975 human lung adenocarcinoma cells (human (on H1975 cells), UniProt Q9NZQ7 19-290); assay: ELISA
# [2] = molecular target: Human PD-L1 mouse Fc fusion protein (human, UniProt Q9NZQ7 19-238); assay: ELISA
# Human PD-L1 mouse Fc fusion protein, sequence (Q9NZQ7 19-238): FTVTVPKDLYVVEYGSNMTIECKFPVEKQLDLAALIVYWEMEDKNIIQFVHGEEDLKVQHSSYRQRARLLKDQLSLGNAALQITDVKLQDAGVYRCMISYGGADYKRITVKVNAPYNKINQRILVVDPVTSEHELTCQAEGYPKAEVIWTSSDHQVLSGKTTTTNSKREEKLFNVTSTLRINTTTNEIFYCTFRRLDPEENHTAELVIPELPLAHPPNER
# PD-L1 on H1975 human lung adenocarcinoma cells, sequence (Q9NZQ7 19-290): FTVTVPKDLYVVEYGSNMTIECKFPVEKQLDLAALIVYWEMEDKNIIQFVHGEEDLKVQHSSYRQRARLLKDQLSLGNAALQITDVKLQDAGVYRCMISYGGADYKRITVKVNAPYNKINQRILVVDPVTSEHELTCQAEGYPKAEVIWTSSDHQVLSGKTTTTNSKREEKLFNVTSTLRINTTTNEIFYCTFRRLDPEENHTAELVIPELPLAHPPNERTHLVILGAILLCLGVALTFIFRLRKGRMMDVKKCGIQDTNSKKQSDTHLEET
binder,measurement,setting,value
"mutPD-1Ig (Fc fusion, human, UniProt Q15116 21-161, looked up) PGWFLDSPDRPWNPPTFSPALLVVTEGDNATFTCSFSNTSESFVLNWYRMSPSNQTDKLAAFPEDRSQPGQDCRFRVTQLPNGRDFHMSVVRARRNDSGTYLCSAISLAPYIQIKESLRAELRVTERRAEVPTAHPSPSPR",EC50,[1],~0.2 nM and 0.1 nM and 0.13 nM
same,EC50,[2],0.02 nM
